Results: publication PMC3048587 (Biochemistry, 2011)

Target: Rac W56F mutant (UniProt P63000 1-192, W56F)
Assay: cell-based or functional assay

B1: Dock180^DHR-2c (C-terminus of DHR-2 in Dock180, residues 1335-1657) (domain or fragment)
chain: KPDYFAVGYYGQGFPTFLRGKVFIYRGKEYERREDFEARLLTQFPNAEKMKTTSPPGDDIKNSPGQYIQCFTVKPKLDLPPKFHRPVSEQIVSFYRVNEVQRFEYSRPIRKGEKNPDNEFANMWIERTIYTTAYKLPGILRWFEVKSVFMVEISPLENAIETMQLTNDKINSMVQQHLDDPSLPINPLSMLLNGIVDPAVMGGFANYEKAFFTDRYLQEHPEAHEKIEKLKDLIAWQIPFLAEGIRIHGDKVTEALRPFHERMEACFKQLKEKVEKEYGVRIMPSSLDDRRGSRPRSMVRSFTMPSSSRPLSVASVSSLSSDS
Mant-GDP nucleotide exchange (GEF activity of DHR-2c), relative to wild-type Rac: < 10 % of the level of wild-type Rac
